According to publication PMC5087089, “Reconstituted B cell receptor signaling reveals carbohydrate-dependent mode of activation” (Scientific Reports, 2016):

Molecular target: T1, wildtype (WT) HA trimer from A/New Caledonia/20/1999 (H1 1999 NC), soluble trimeric format (influenza A virus A/New …, UniProt Q6WG00)
T1 construct: also called wildtype HA
Experiment: ELISA
Details: both partners purified

B1: CH65, HA receptor binding site specific monoclonal antibody (antibody, V domains shown)
VH: EVQLVQSGAEVKKPGASVKVSCKASGYTFTDYHINWVRQAPGQGLEWMGWIHPNSGDTNYAQKFQGWVTMTRDTAISTAYMEVNGLKSDDTAVYYCARGGLEPRSVDYYYYGMDVWGQGTTVTVSS
VL: SVLTQPPSVSVAPGQTARITCGGNDIGRKSVHWNQQKPGQAPVLVVCYDSDRPSGIPERFSGSNSGNTATLTISRVEAGDEADYYCQVWDSSSDHVIFGGGTKLTVL
- binding result: binds
